B1: CD2-associated protein, residues 109 to 169; numbered along this chain, Q9Y5K6 (parent)
chain: KKRQCKVLFEYIPQNEDELELKVGDIIDINEEVEEGWWSGTLNNKLGLFPSNFVKELEVTD

Variants of: B1
Experiment: abundance fitness (aPCA) (normalised: wild type 0, dead -1); higher = more abundant; growth selection in yeast, the domain comes from the species named
Details: Homo sapiens

Abundance fitness, by site and new letter:
G36: V -0.651; W -0.59; Y -0.276; R -0.323; Q -0.457
L42: E -0.922; R -0.388; H -0.252; Y -0.01; P -0.732; D -0.241; K -0.317; T -0.131; W -0.945; F -0.616; I -0.242; G -0.451; N 0.12; Q -0.432; A -0.391; M -0.486; C -0.174; V -0.064; S 0.042
G47: S -1.05; I -0.584; D -0.611; M -1.21; K -0.773; F -0.784; P -0.82; L -0.922; Y -0.434; Q -0.696; N -0.723; W -0.759; T -0.644
F49: T -0.921; D -0.815; G -1.06; C -0.953; Y -0.27; S -0.707; A -0.755; R -1.3; W -1.01; K -0.524; E -0.872; L -0.77
F53: N -0.109; H 0.054; S 0.037; P -0.525; Y 0.019; E -0.894; I 0.149; M 0.057; W -0.56; T -0.255; L -0.157; R 0.007; Q -0.2; K -0.031; C 0.067; A 0.015; G -0.48
L57: E -0.133; F -0.148; P -0.508; Q -0.485; I 0.241; W -0.486; S -0.601; K -0.263; T -0.269; V -0.239; R -0.64; N -0.69; G -0.864; C -0.041; A -0.585
S39: H -0.085; P -1.1; N -0.25; D -0.696; A -0.349; Y -0.257; G -0.459; L 0.057; V 0.094; Q -0.217; W -0.03; M -0.126; E -0.097; T -0.06; K 0.166
N43: C -0.19; M -0.144; T -0.835; Y -0.553; S -0.337; V -0.679; L -0.489; H -0.014; E -0.333; R 0.061; Q -0.275; K -0.544; P -0.791; F -0.137; G -0.09
V54: C 0.125; F -0.416; R -0.969; T -0.222; W -0.903; I -0.113; G -0.661; Q -0.546; A -0.52; S -0.94; L -0.753; P -0.816; M -0.63; N -0.84
K55: L -0.29; P -1.05; C -0.142; N -0.193; E 0.127; V -0.146; M 0.009; H -0.035; T -0.163; G -0.131; Q 0.064; R 0.017; D -0.313; I -0.077; S -0.259; A -0.01
W37: I -0.524; Y -0.448; F -0.201; P -0.541; T -0.366; A -0.855; M -0.267; S -0.77; G -0.74; D -0.387; R -0.375; V -0.255; L -0.344; E 0; K -0.681; H -0.656
W38: F -0.263; T -0.618; D -0.587; H -0.679; N -0.605; Q -0.55; V -0.46; P -0.787; Y 0.109; R -0.586; G -0.569; A -0.752; M -0.223; S -0.49; I -0.057; C -0.385; K -0.669
N44: Y -0.483; P -0.356; S -0.261; Q -0.183; R -0.273; L -0.489; A -0.048; V -0.795; K 0.019; M -0.318
L46: T 0.151; H 0.035; E 0.138; W 0.013; C 0.127; F 0.092; Q 0.022; A 0.031; D 0.034; P -0.196; I 0.169; G -0.303; Y 0.011; V 0.047; N 0.074; M 0.006; K 0.069; S 0.113
T41: Q -0.062; G -0.517; K -0.229; E -0.05; S -0.35; F -0.274; M -0.162; H -0.158; W 0.016; R -0.171; I -0.246; L -0.318; N -0.011; V 0.078; Y -0.065; A -0.182
E56: W -0.769; I -0.225; D -0.505; A -0.366; K 0.16; P -0.224; S -0.32; Q -0.291; H -0.666; L -0.058; T -0.033; F -0.406; V -0.105; C 0.034; Y -0.717
S51: G -0.35; P -0.429; C -0.311; T -0.047; I -0.178; L -0.366; F -0.431; E -0.762; W -0.093; M -0.138; D -0.324; Q -0.307; V -0.069; A 0.09; K -0.12; R -0.361; N -0.769
L48: K 0.197; N -0.187; V -0.067; S -0.438; P -0.403; G -0.618; W -0.201; F -0.19; H -0.291; C -0.094; E -0.539; D -0.821; T -0.021; Q -0.298; R 0.273; M -0.107; I -0.022; Y -0.033
E58: V 0.078; T -0.211; N -0.057; C -0.073; G 0.094; D 0.056; M 0; K 0.027; R -0.232; L -0.062; A -0.305; Q 0.202; S -0.035; I -0.23; F -0.207
N52: S -0.02; K 0.048; F -0.228; C 0.114; Q -0.255; M -0.12; Y -0.34; D -0.016; W -0.454; A -0.067; L -0.287; E 0.053; R 0.048; P -0.228; H -0.348
K45: E -0.453; V -0.556; L -0.638; M -0.55; R -0.066; N -0.183; Q 0.04; S -0.603; F -0.695; C -0.065; A -0.779; T -0.458; I -0.433; Y -0.273
P50: W -0.764; V -1.03; L -0.665; N -0.045; A -0.941; R -0.064; S -0.465; M -0.57; Q -0.279; H 0.078; K -0.226; G -0.697; T -0.367
G40: F -0.477; V -0.306; Q -1.03; S -0.92; W -0.668; T -1.02; L -1.17; C -0.664; A -0.747
